Measured values as given in paper PMC3684361.

Biological target: TET2 catalytic domain (TET2CD: a.a. 916-1921), recombinant from Sf9
Test: pull-down

B1: OGT, full-length, recombinant from Sf9 (enzyme)
chain: MASSVGNVADSTEPTKRMLSFQGLAELAHREYQAGDFEAAERHCMQLWRQEPDNTGVLLLLSSIHFQCRRLDRSAHFSTLAIKQNPLLAEAYSNLGNVYKERGQLQEAIEHYRHALRLKPDFIDGYINLAAALVAAGDMEGAVQAYVSALQYNPDLYCVRSDLGNLLKALGRLEEAKACYLKAIETQPNFAVAWSNLGCVFNAQGEIWLAIHHFEKAVTLDPNFLDAYINLGNVLKEARIFDRAVAAYLRALSLSPNHAVVHGNLACVYYEQGLIDLAIDTYRRAIELQPHFPDAYCNLANALKEKGSVAEAEDCYNTALRLCPTHADSLNNLANIKREQGNIEEAVRLYRKALEVFPEFAAAHSNLASVLQQQGKLQEALMHYKEAIRISPTFADAYSNMGNTLKEMQDVQGALQCYTRAIQINPAFADAHSNLASIHKDSGNIPEAIASYRTALKLKPDFPDAYCNLAHCLQIVCDWTDYDERMKKLVSIVADQLEKNRLPSVHPHHSMLYPLSHGFRKAIAERHGNLCLDKINVLHKPPYEHPKDLKLSDGRLRVGYVSSDFGNHPTSHLMQSIPGMHNPDKFEVFCYALSPDDGTNFRVKVMAEANHFIDLSQIPCNGKAADRIHQDGIHILVNMNGYTKGARNELFALRPAPIQAMWLGYPGTSGALFMDYIITDQETSPAEVAEQYSEKLAYMPHTFFIGDHANMFPHLKKKAVIDFKSNGHIYDNRIVLNGIDLKAFLDSLPDVKIVKMKCPDGGDNADSSNTALNMPVIPMNTIAEAVIEMINRGQIQITINGFSISNGLATTQINNKAATGEEVPRTIIVTTRSQYGLPEDAIVYCNFNQLYKIDPSTLQMWANILKRVPNSVLWLLRFPAVGEPNIQQYAQNMGLPQNRIIFSPVAPKEEHVRRGQLADVCLDTPLCNGHTTGMDVLWAGTPMVTMPGETLASRVAASQLTCLGCLELIAKNRQEYEDIAVKLGTDLEYLKKVRGKVWKQRISSPLFNTKQYTMELERLYLQMWEHYAAGNKPDHMIKPVEVTESA
stoichiometry N: 1
